Data from paper doi:10.1101/327320.

How the values were obtained:
Experiment in all cases: EMSA
Pif1-K264A = biological target: T1, Pif1-K264A (Saccharomyces cerevisiae, UniProt P07271 1-859, K264A)
T1 sequence: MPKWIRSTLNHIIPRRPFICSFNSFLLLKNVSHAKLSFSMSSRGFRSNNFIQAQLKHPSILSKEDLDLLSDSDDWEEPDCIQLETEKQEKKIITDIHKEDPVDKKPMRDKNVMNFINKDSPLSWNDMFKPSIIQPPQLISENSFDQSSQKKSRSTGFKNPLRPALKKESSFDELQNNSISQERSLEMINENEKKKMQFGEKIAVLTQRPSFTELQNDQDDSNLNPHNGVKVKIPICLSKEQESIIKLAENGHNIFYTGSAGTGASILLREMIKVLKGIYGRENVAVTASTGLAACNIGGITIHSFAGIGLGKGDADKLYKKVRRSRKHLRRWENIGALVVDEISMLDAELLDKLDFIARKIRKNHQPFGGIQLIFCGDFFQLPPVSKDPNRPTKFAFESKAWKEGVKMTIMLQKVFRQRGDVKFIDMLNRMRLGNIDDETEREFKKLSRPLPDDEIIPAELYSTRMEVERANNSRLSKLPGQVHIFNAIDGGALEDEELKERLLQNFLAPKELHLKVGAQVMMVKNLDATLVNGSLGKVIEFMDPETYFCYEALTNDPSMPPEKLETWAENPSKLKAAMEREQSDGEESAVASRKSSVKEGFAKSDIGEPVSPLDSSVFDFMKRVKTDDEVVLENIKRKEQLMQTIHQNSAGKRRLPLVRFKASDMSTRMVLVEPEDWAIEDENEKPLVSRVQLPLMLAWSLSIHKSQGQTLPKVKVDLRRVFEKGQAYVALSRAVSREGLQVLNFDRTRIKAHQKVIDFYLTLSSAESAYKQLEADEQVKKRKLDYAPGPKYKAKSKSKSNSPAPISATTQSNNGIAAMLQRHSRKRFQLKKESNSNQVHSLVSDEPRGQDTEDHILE

Pif1 = biological target: T2, Pif1 (Saccharomyces cerevisiae, UniProt P07271 1-859)
T2 sequence: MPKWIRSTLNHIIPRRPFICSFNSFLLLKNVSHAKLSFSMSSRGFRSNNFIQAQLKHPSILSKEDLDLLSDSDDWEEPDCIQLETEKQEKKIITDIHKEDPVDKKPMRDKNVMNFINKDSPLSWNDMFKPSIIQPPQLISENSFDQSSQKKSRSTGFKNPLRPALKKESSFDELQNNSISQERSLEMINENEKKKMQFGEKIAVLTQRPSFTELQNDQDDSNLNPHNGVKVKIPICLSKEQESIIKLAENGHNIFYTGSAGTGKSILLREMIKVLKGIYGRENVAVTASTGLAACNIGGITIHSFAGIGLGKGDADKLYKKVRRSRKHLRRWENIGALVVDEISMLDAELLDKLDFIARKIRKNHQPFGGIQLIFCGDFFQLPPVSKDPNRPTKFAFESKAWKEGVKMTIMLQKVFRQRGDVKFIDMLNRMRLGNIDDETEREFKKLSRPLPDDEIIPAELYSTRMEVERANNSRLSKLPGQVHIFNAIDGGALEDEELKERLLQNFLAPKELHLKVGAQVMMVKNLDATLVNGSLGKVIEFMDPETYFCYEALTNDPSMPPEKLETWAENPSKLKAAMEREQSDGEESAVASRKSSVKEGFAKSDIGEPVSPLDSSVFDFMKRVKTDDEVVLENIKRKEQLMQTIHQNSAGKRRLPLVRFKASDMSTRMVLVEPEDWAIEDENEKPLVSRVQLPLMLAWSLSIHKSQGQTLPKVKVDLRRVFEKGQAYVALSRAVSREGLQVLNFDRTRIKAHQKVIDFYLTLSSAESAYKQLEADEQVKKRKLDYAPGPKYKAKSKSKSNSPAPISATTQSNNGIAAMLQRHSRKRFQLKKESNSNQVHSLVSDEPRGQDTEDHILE

Hrq1 = biological target: T3, Hrq1 (Saccharomyces cerevisiae, UniProt Q05549 1-1077)
T3 sequence: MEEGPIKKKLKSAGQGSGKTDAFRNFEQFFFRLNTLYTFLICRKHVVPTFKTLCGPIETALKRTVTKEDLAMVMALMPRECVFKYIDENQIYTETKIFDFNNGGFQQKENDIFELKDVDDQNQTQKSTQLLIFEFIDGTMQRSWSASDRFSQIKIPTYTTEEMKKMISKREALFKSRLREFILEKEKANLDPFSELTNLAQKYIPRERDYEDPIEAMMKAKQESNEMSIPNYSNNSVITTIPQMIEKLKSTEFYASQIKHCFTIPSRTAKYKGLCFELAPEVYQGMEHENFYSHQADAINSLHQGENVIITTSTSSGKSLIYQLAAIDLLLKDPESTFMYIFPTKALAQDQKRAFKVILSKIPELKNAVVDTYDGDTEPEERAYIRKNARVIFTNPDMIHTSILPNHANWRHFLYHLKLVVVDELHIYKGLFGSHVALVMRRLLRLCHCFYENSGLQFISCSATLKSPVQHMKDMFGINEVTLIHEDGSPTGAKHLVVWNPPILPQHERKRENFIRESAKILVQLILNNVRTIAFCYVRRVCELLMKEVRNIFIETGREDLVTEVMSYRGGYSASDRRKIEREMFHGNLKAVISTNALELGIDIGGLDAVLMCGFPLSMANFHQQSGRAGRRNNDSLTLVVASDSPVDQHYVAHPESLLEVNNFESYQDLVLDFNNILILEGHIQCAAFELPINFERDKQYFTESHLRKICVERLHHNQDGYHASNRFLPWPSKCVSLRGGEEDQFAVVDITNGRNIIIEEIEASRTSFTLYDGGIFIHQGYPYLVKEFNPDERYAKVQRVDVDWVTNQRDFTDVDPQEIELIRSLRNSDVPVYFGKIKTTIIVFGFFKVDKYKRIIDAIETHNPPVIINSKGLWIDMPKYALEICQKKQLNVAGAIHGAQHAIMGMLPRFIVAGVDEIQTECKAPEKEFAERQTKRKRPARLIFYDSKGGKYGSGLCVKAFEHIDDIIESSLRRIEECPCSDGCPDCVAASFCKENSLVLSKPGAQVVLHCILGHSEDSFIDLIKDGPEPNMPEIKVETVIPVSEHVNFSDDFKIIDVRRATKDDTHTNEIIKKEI

Hrq1;Pif1 = Hrq1;Pif1 (Saccharomyces cerevisiae;Saccharomyces …, UniProt Q05549;P07271 1-1077;1-859, |)
Hrq1-K318A = biological target: T4, Hrq1-K318A (Saccharomyces cerevisiae, UniProt Q05549 1-1077, K318A)
T4 sequence: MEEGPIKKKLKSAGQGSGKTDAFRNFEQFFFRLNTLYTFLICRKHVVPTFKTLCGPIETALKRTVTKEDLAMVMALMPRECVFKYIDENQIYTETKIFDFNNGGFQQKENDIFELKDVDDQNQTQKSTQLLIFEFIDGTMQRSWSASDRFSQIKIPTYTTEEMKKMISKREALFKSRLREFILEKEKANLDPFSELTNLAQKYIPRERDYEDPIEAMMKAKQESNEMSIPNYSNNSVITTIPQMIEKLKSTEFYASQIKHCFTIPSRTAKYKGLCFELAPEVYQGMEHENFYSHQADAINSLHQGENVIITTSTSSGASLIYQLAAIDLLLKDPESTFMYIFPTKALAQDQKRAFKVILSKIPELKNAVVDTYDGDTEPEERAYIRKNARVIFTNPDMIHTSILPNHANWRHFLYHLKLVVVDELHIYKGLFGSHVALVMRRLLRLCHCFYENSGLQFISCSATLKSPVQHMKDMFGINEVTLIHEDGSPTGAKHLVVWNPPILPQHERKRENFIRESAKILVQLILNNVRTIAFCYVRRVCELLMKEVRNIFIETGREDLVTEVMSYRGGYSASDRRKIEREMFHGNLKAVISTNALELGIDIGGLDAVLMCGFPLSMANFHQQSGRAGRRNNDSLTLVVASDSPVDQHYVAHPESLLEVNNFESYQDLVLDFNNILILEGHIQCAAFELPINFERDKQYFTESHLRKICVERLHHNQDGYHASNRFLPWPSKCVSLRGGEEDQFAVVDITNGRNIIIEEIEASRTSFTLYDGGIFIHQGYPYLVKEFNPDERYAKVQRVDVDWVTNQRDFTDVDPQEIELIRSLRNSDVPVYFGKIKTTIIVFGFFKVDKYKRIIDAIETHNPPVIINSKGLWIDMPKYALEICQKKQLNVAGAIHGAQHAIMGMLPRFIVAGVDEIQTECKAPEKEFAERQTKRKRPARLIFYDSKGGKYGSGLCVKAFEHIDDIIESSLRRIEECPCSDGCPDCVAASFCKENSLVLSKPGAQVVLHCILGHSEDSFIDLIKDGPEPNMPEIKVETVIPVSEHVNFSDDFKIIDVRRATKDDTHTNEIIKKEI

TGTGGTGTGTGTGGG (ssDNA) [Tel15]
binding result (Pif1-K264A): binds | binding result (Pif1): binds

TTTTTTTTTTTTTTTTTTTTTTTTT (ssDNA) [MB463 poly(dT) 25 nt]
Kd (Hrq1): ~35 nM

GTGTGGGTGTGGTGTGGGTGTGGTGTGGGTGTGTGGTGTGGTGTGTGTGG (ssDNA) [Tel50]
binding result (Hrq1;Pif1): binds

CGCCATGCTGATCCGTGTGGTGTGTGTGGG (ssDNA) [Tel30]
Kd (Pif1-K264A): 41.2 nM | Kd (Pif1): 33.5 nM | Kd (Hrq1): 16.1 nM | Kd (Hrq1-K318A): 105 nM

TTTTTTTTTTTTTTTTTTTTTTTTT (ssDNA, 3'-terminal T25 is inverted dT (3'-3' linkage, two 5' ends, no free 3' end)) [MB1429 poly(dT) 25 nt with 3' inverted dT]
Kd (Hrq1): ~35 nM
